Source: US20240209062A1 (INVETX, published 2024)
Numbering of substitutions follows the chain as printed. Names and notes keep the numbering of the source.

B1: IgG with wild-type feline IgG1a Fc (antibody)
heavy: DVQLVESGGDLVKPGGSLRLTCVASGLSLTSDSMSWVRQAPGKGLQWVSTLWSNRGTYYTDSVKGRFTISKDNAENTLYLQMNNLKTEDTATYYCASIYYYEADYLHWYFDFWGQGALVTVSSASTTAPSVFPLAPSCGTTSGATVALACLVLGYFPEPVTVSWNSGALTSGVHTFPAVLQASGLYSLSSMVTVPSSRWLSDTFTCNVAHPPSNTKVDKTVRKTDHPPGPKPCDCPKCPPPEAAGGPSIFIFPPKPKDTLSISRTPEVTCLVVDLGPDDSDVQITWFVDNTQVYTAKTSPREEQFNSTYRVVSVLPILHQDWLKGKEFKCKVNSKSLPSPIERTISKAKGQPHEPQVYVLPPAQEELSRNKVSVTCLIKSFHPPDIAVEWEITGQPEPENNYRTTPPQLDSDGTYFVYSKLSVDRSHWQRGNTYTCSVSHEALHSHHTQKSLTQSPG
light: EIQMTQSPTSLSASVGDRVTITCRASEGIANNLSWYQQTPGKAPKLLIYATSNLHSGVPSRFSGSGSGTDFTLTISSLQPEDFATYYCQQGFKWPLTFGGGTKLEITRSDAQPSVFLFQPSLDELHTGSASIVCILNDFYPKEVNVKWKVDGVVQNKGIQESTTEQNSKDSTYSLSSTLTMSSTEYQSHEKFSCEVTHKSLASTLVKSFNRSECQRE
notes: Constant domain carries the MALA mutations (M234A, L244A as printed); variable domains from WO 2023/97275; also called Wild-type Fc; wild type feline Fc
B2: IgG with feline IgG1a Fc variant S252M (antibody)
heavy: B1 heavy with S261M
light: B1 light
notes: IgG1a constant domain with MALA mutations (M234A, L244A as printed); variable domains from WO 2023/97275
B3: IgG with feline IgG1a Fc variant S252M, I377L (antibody)
heavy: B1 heavy with S261M, I386L
light: B1 light
notes: Printed '1377L' read as I377L; IgG1a constant domain with MALA mutations (M234A, L244A as printed); variable domains from WO 2023/97275; also called S252M, 1377L
B4: IgG with feline IgG1a Fc variant S252M, I377Y (antibody)
heavy: B1 heavy with S261M, I386Y
light: B1 light
notes: Printed '1377Y' read as I377Y; IgG1a constant domain with MALA mutations (M234A, L244A as printed); variable domains from WO 2023/97275; also called S252M, 1377Y
B5: IgG with feline IgG1a Fc variant S252M, L309D (antibody)
heavy: B1 heavy with S261M, L318D
light: B1 light
notes: as for B2
B6: IgG with feline IgG1a Fc variant S252M, L309V (antibody)
heavy: B1 heavy with S261M, L318V
light: B1 light
notes: as for B2
B7: IgG with feline IgG1a Fc variant S252M, Q311V (antibody)
heavy: B1 heavy with S261M, Q320V
light: B1 light
notes: as for B2
B8: IgG with feline IgG1a Fc variant S252M, R301L (antibody)
heavy: B1 heavy with S261M, R310L
light: B1 light
notes: as for B2
B9: IgG with feline IgG1a Fc variant S252M, R301V (antibody)
heavy: B1 heavy with S261M, R310V
light: B1 light
notes: as for B2
B10: IgG with feline IgG1a Fc variant S252M, R301Y (antibody)
heavy: B1 heavy with S261M, R310Y
light: B1 light
notes: as for B2
B11: IgG with feline IgG1a Fc variant S252M, R392D (antibody)
heavy: B1 heavy with S261M, R403D
light: B1 light
notes: as for B2
B12: IgG with feline IgG1a Fc variant S252M, R392E (antibody)
heavy: B1 heavy with S261M, R403E
light: B1 light
notes: as for B2
B13: IgG with feline IgG1a Fc variant S252M, T286D (antibody)
heavy: B1 heavy with S261M, T295D
light: B1 light
notes: as for B2
B14: IgG with feline IgG1a Fc variant S252M, T286E (antibody)
heavy: B1 heavy with S261M, T295E
light: B1 light
notes: as for B2
B15: IgG with feline IgG1a Fc variant S252Y (antibody)
heavy: B1 heavy with S261Y
light: B1 light
notes: as for B2
B16: IgG with feline IgG1a Fc variant S252Y, I377L (antibody)
heavy: B1 heavy with S261Y, I386L
light: B1 light
notes: Printed '1377L' read as I377L; IgG1a constant domain with MALA mutations (M234A, L244A as printed); variable domains from WO 2023/97275; also called S252Y, 1377L
B17: IgG with feline IgG1a Fc variant S252Y, I377Y (antibody)
heavy: B1 heavy with S261Y, I386Y
light: B1 light
notes: Printed '1377Y' read as I377Y; IgG1a constant domain with MALA mutations (M234A, L244A as printed); variable domains from WO 2023/97275; also called S252Y, 1377Y
B18: IgG with feline IgG1a Fc variant S252Y, L309D (antibody)
heavy: B1 heavy with S261Y, L318D
light: B1 light
notes: as for B2
B19: IgG with feline IgG1a Fc variant S252Y, L309V (antibody)
heavy: B1 heavy with S261Y, L318V
light: B1 light
notes: as for B2
B20: IgG with feline IgG1a Fc variant S252Y, R301L (antibody)
heavy: B1 heavy with S261Y, R310L
light: B1 light
notes: as for B2
B21: IgG with feline IgG1a Fc variant S252Y, R301V (antibody)
heavy: B1 heavy with S261Y, R310V
light: B1 light
notes: as for B2
B22: IgG with feline IgG1a Fc variant S252Y, R301Y (antibody)
heavy: B1 heavy with S261Y, R310Y
light: B1 light
notes: as for B2
B23: IgG with feline IgG1a Fc variant S252Y, R392D (antibody)
heavy: B1 heavy with S261Y, R403D
light: B1 light
notes: as for B2
B24: IgG with feline IgG1a Fc variant S252Y, R392E (antibody)
heavy: B1 heavy with S261Y, R403E
light: B1 light
notes: as for B2
B25: IgG with feline IgG1a Fc variant S252Y, T286D (antibody)
heavy: B1 heavy with S261Y, T295D
light: B1 light
notes: as for B2
B26: IgG with feline IgG1a Fc variant S252Y, T286E (antibody)
heavy: B1 heavy with S261Y, T295E
light: B1 light
notes: as for B2
B27: IgG with feline IgG1a Fc variant S428L (antibody)
heavy: B1 heavy with S439L
light: B1 light
notes: as for B2
B28: IgG with feline IgG1a Fc variant S428L, I377L (antibody)
heavy: B1 heavy with I386L, S439L
light: B1 light
notes: Printed '1377L' read as I377L; IgG1a constant domain with MALA mutations (M234A, L244A as printed); variable domains from WO 2023/97275; also called S428L, 1377L
B29: IgG with feline IgG1a Fc variant S428L, I377Y (antibody)
heavy: B1 heavy with I386Y, S439L
light: B1 light
notes: Printed '1377Y' read as I377Y; IgG1a constant domain with MALA mutations (M234A, L244A as printed); variable domains from WO 2023/97275; also called S428L, 1377Y
B30: IgG with feline IgG1a Fc variant S428L, L309D (antibody)
heavy: B1 heavy with L318D, S439L
light: B1 light
notes: as for B2
B31: IgG with feline IgG1a Fc variant S428L, R301L (antibody)
heavy: B1 heavy with R310L, S439L
light: B1 light
notes: as for B2
B32: IgG with feline IgG1a Fc variant S428L, R301V (antibody)
heavy: B1 heavy with R310V, S439L
light: B1 light
notes: as for B2
B33: IgG with feline IgG1a Fc variant S428L, R301Y (antibody)
heavy: B1 heavy with R310Y, S439L
light: B1 light
notes: as for B2
B34: IgG with feline IgG1a Fc variant S428L, R392D (antibody)
heavy: B1 heavy with R403D, S439L
light: B1 light
notes: as for B2

What follows are binders tested against T1, feline FcRn (soluble portion of large subunit p51 isoform X1 with C-terminal 6xHis-tag, co-expressed with … (feline, UniProt Q5MGS7 21-118)) (assay: SPR, Biacore T200, IgG captured on Protein L chip, feline FcRn flowed over, pH 5.9, 1:1 fit).
T1 construct: Heterodimer made by co-expression in CHO cells, purified on HisTrap FF; also called FcRn complex
T1 sequence (chain, as listed by the source limits assumed, chain 1 of 2): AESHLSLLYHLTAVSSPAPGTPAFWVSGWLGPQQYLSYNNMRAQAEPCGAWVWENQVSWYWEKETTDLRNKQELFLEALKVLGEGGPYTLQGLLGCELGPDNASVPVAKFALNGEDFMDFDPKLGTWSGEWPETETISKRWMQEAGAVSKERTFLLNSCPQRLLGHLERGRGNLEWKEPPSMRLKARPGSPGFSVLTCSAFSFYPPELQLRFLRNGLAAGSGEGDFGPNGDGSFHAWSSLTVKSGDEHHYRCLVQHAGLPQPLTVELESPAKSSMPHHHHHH
T1 sequence (Q5MGS7 other isoform, or with tags, fused parts or gaps limits assumed, chain 2 of 2): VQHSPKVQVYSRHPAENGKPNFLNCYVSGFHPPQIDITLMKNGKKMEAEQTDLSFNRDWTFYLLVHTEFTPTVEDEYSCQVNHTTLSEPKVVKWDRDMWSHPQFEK
Experimental: The feline FcRn binding experiments at pH 5.9 were completed on a BIACORE™ T200 instrument. A Series S Protein L Sensor chip (Cytiva, Cat. No. BR29205137) was used to capture the antibody variants via the kappa (κ) light chain. The feline variants were captured onto the protein L chip at a flow rate of 10 μL/min for 60 seconds. 1×PBX-P+(Cytiva Cat 28995084) was adjusted to pH 5.9 for the running buffer. The feline FcRn was flowed over the sensor chip at 30 μL/min for 120 seconds contact time and 600 seconds dissociation time. Regeneration of the flow cells was completed by flowing over 10 mM glycine, pH 1.7 at 30 μL/min for 30 seconds. The data were evaluated by the BIACORE™T200 Evaluation software v3.2.1 by fitting to a 1:1 kinetic interaction model.
For B1, the Kd was 417 nM, the koff was 0.273 s⁻¹ and the kon was 709000 M⁻¹ s⁻¹.
In the case of B2, the Kd is reported as 279 nM, the koff is reported as 0.192 s⁻¹ and the kon is reported as 690000 M⁻¹ s⁻¹.
B3 showed a Kd of 216 nM, a koff of 0.187 s⁻¹ and a kon of 869000 M⁻¹ s⁻¹.
In the case of B4, the Kd is reported as 202 nM, the koff is reported as 0.175 s⁻¹ and the kon is reported as 862000 M⁻¹ s⁻¹.
With B5 the Kd was 352 nM, the koff was 0.203 s⁻¹ and the kon was 581000 M⁻¹ s⁻¹.
With B6 the Kd was 129 nM, the koff was 0.124 s⁻¹ and the kon was 958000 M⁻¹ s⁻¹.
B7 was tested, and the Kd was 152 nM, the koff was 0.121 s⁻¹ and the kon was 865000 M⁻¹ s⁻¹.
B8 gave a Kd of 280 nM, a koff of 0.332 s⁻¹ and a kon of 1.2e+06 M⁻¹ s⁻¹.
In the case of B9, the Kd is reported as 278 nM, the koff is reported as 0.206 s⁻¹ and the kon is reported as 745000 M⁻¹ s⁻¹.
In the case of B10, the Kd is reported as 258 nM, the koff is reported as 0.18 s⁻¹ and the kon is reported as 695000 M⁻¹ s⁻¹.
Work on B11 yielded a Kd of 268 nM, a koff of 0.229 s⁻¹ and a kon of 856000 M⁻¹ s⁻¹.
With B12 the Kd was 186 nM, the koff was 0.177 s⁻¹ and the kon was 965000 M⁻¹ s⁻¹.
In the case of B13, the Kd is reported as 123 nM, the koff is reported as 0.105 s⁻¹ and the kon is reported as 850000 M⁻¹ s⁻¹.
In the case of B14, the Kd is reported as 101 nM, the koff is reported as 0.0719 s⁻¹ and the kon is reported as 715000 M⁻¹ s⁻¹.
B15 gave a Kd of 36.1 nM, a koff of 0.0268 s⁻¹ and a kon of 742000 M⁻¹ s⁻¹.
Work on B16 yielded a Kd of 31.5 nM, a koff of 0.0224 s⁻¹ and a kon of 712000 M⁻¹ s⁻¹.
For B17, the Kd was 36.1 nM, the koff was 0.0258 s⁻¹ and the kon was 716000 M⁻¹ s⁻¹.
In the case of B18, the Kd is reported as 56.7 nM, the koff is reported as 0.0284 s⁻¹ and the kon is reported as 502000 M⁻¹ s⁻¹.
B19 showed a Kd of 18.7 nM, a koff of 0.0139 s⁻¹ and a kon of 747000 M⁻¹ s⁻¹.
In the case of B20, the Kd is reported as 38.8 nM, the koff is reported as 0.0277 s⁻¹ and the kon is reported as 714000 M⁻¹ s⁻¹.
In the case of B21, the Kd is reported as 38.7 nM, the koff is reported as 0.028 s⁻¹ and the kon is reported as 724000 M⁻¹ s⁻¹.
Binder B22 has a Kd of 37.6 nM, a koff of 0.0262 s⁻¹ and a kon of 696000 M⁻¹ s⁻¹.
With B23 the Kd was 25 nM, the koff was 0.0296 s⁻¹ and the kon was 1.19e+06 M⁻¹ s⁻¹.
In the case of B24, the Kd is reported as 24.1 nM, the koff is reported as 0.0287 s⁻¹ and the kon is reported as 1.19e+06 M⁻¹ s⁻¹.
With B25 the Kd was 15.2 nM, the koff was 0.00955 s⁻¹ and the kon was 631000 M⁻¹ s⁻¹.
Binder B26 has a Kd of 12.1 nM, a koff of 0.00783 s⁻¹ and a kon of 650000 M⁻¹ s⁻¹.
With B27 the Kd was 64 nM, the koff was 0.0619 s⁻¹ and the kon was 968000 M⁻¹ s⁻¹.
B28 showed a Kd of 87.7 nM, a koff of 0.0723 s⁻¹ and a kon of 819000 M⁻¹ s⁻¹.
In the case of B29, the Kd is reported as 107 nM, the koff is reported as 0.117 s⁻¹ and the kon is reported as 1.09e+06 M⁻¹ s⁻¹.
B30 showed a Kd of 200 nM, a koff of 0.12 s⁻¹ and a kon of 597000 M⁻¹ s⁻¹.
B31 gave a Kd of 115 nM, a koff of 0.116 s⁻¹ and a kon of 1.01e+06 M⁻¹ s⁻¹.
Binder B32 has a Kd of 109 nM, a koff of 0.0832 s⁻¹ and a kon of 763000 M⁻¹ s⁻¹.
Work on B33 yielded a Kd of 99.1 nM, a koff of 0.0706 s⁻¹ and a kon of 712000 M⁻¹ s⁻¹.
Work on B34 yielded a Kd of 104 nM, a koff of 0.0934 s⁻¹ and a kon of 904000 M⁻¹ s⁻¹.
